In patent US20030158387A1:
Like-named read-outs stand apart in the source and are kept apart here. *: point of attachment. Nonanoyl = CCCCCCCCC(=O)*

How the values were obtained:
[1] = target: chemokine receptor 1 (CCR1) (UniProt P56482)
[2] = target: chemokine receptor 1 (CCR1) (UniProt P56482); remark: listed apart in the source
[3] = target: chemokine receptor 1 (CCR1) (UniProt P56482); assay: competition radioligand binding, membranes of CHO-K1 cells expressing CCR1, tracer [125I]-MIP-1 alpha
[4] = target: chemokine receptor 1 (CCR1) (UniProt P56482); remark: listed apart in the source
[5] = target: chemokine receptor 1 (CCR1) (UniProt P56482); assay: competition radioligand binding, membranes of CHO-K1 cells expressing CCR1, tracer [125I]-MIP-1 alpha; remark: listed apart in the source
[6] = target: chemokine receptor 1 (CCR1) (UniProt P56482); assay: cell-based or functional assay
[7] = target: chemokine receptor 1 (CCR1) (UniProt P56482); assay: competition with 125I-RANTES for binding to CCR1
[8] = target: chemokine receptor 1 (CCR1) (UniProt P56482); assay: competition with 125I-RANTES, membranes of CHO-K1 cells expressing CCR1, filtration, one site competition model; 125I-Rantes tracer, CCR1 membranes
[9] = target: chemokine receptor 5 (CCR5) (human), P51681; assay: competition radioligand binding, membranes of CHO-K1 cells expressing CCR5, tracer [125I]-MIP-1 beta; details: remark: other sources report otherwise
[10] = target: chemokine receptor 5 (CCR5) (human), P51681; assay: competition radioligand binding, membranes of CHO-K1 cells expressing CCR5, tracer [125I]-MIP-1 beta; mean ± SEM; details: remark: other sources report otherwise
[11] = target: chemokine receptor 1 (CCR1) (UniProt P56482); assay: competition radioligand binding on CCR1 (assay not given)

chemokine receptor 5 (CCR5) (human), P51681, sequence (P51681 whole entry): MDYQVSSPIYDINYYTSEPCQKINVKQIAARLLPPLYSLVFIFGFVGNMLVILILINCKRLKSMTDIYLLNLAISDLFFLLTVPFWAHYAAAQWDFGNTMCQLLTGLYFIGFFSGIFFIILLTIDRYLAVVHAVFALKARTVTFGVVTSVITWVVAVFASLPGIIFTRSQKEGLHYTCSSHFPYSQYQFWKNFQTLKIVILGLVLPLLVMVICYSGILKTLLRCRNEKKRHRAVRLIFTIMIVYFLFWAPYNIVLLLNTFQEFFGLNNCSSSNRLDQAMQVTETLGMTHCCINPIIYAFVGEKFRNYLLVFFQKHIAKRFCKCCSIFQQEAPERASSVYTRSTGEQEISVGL

B1: HCC-1[11-74] (ligand)
chain: YHPSECCFTYTTYKIPRQRIMDYYETNSQCSKPGIVFITKRGHSVCTNPSDKWVQDYIKDMKEN
[1]
  EC50 (aequorin luminescence, CHO-K1 cells expressing CCR1): 40.3 nM

B2: NNY-HCC-1[10-74] (nonanoyl-HCC-1[10-74]) (ligand)
chain: Nonanoyl-PYHPSECCFTYTTYKIPRQRIMDYYETNSQCSKPGIVFITKRGHSVCTNPSDKWVQDYIKDMKEN
modifications: ends and bridges not checked
[1]
  EC50 (aequorin luminescence, CHO-K1 cells expressing CCR1): 5.9 nM
[2]
  EC50 (read off the curve): 4 nM
[3]
  IC50 (read off the curve): 0.1 nM

B3: HCC-1, residues 6-74 (ligand)
chain: SSRGPYHPSECCFTYTTYKIPRQRIMDYYETNSQCSKPGIVFITKRGHSVCTNPSDKWVQDYIKDMKEN
[1]
  EC50 (aequorin luminescence, CHO-K1 cells expressing CCR1): 262 nM

B4: HCC-1[10-74] (ligand)
chain: PYHPSECCFTYTTYKIPRQRIMDYYETNSQCSKPGIVFITKRGHSVCTNPSDKWVQDYIKDMKEN
[1]
  EC50 (aequorin luminescence, CHO-K1 cells expressing CCR1): 4.32 nM
[4]
  EC50 (read off the curve): 3 nM
[5]
  IC50 (read off the curve): 0.2 nM
[3]
  IC50 (read off the curve): 0.1 nM

B5: processed human chemokine PHC-1 (HCC-1[9-74]) (ligand)
chain: GPYHPSECCFTYTTYKIPRQRIMDYYETNSQCSKPGIVFITKRGHSVCTNPSDKWVQDYIKDMKEN
[1]
  EC50 (aequorin luminescence, CHO-K1 cells expressing CCR1): 2.62 nM
[4]
  EC50 (read off the curve): 2 nM
[6]
  EC50 of receptor activation (aequorin assay): 2.8 nM
[7]
  Ki: 0.023 nM
[5]
  IC50 (read off the curve): 0.2 nM
[8]
  IC50: 2.3 nM

B6: HCC-1[12-74] (ligand)
chemokine chain: HPSECCFTYTTYKIPRQRIMDYYETNSQCSKPGIVFITKRGHSVCTNPSDKWVQDYIKDMKEN
[5]
  IC50 (read off the curve): 40 nM

B7: RANTES, P13501 24-91 (ligand, UniProt P13501 24-91, looked up)
chain: SPYSSDTTPCCFAYIARPLPRAHIKEYFYTSGKCSNPAVVFVTRKNRQVCANPEKKWVREYINSLEMS
modifications: ends and bridges not checked; also: 125I-labelled where used as tracer, unlabelled in functional assays
[9]
  IC50 (read off the curve): 0.1 nM
[10]
  IC50: 0.116 nM

B8: HCC-1[8-74] (ligand)
chain: RGPYHPSECCFTYTTYKIPRQRIMDYYETNSQCSKPGIVFITKRGHSVCTNPSDKWVQDYIKDMKEN
[1]
  EC50 (aequorin luminescence, CHO-K1 cells expressing CCR1): 35.2 nM

B9: full size human chemokine HCC-1 (residues 1-74) (ligand)
chain: TKTESSSRGPYHPSECCFTYTTYKIPRQRIMDYYETNSQCSKPGIVFITKRGHSVCTNPSDKWVQDYIKDMKEN
[11]
  Ki: 100 nM

B10: HCC-1[7-74] (ligand)
chain: SRGPYHPSECCFTYTTYKIPRQRIMDYYETNSQCSKPGIVFITKRGHSVCTNPSDKWVQDYIKDMKEN
[1]
  EC50 (aequorin luminescence, CHO-K1 cells expressing CCR1): 218 nM
